Patent publication US20180073000A1

How the values were obtained:
[1] = biological target: T1, E8-N13 modified GALNS (Homo sapiens)
T1 sequence: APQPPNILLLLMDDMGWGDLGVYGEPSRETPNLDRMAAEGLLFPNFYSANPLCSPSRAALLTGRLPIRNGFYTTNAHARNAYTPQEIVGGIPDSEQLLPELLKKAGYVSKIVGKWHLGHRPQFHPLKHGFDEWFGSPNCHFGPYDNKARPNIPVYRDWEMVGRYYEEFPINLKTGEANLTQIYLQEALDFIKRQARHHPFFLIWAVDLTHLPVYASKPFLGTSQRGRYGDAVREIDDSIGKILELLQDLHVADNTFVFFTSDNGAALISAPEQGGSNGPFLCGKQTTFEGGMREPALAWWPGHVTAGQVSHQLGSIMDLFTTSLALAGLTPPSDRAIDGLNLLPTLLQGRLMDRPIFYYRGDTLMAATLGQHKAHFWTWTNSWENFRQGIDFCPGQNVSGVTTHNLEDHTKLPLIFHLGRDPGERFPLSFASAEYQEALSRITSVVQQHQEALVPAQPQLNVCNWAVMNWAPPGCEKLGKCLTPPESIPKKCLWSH

[2] = biological target: T2, GALNS-231 (C4-N6 + E8-N14 + I10-N14) (Homo sapiens)
T2 sequence: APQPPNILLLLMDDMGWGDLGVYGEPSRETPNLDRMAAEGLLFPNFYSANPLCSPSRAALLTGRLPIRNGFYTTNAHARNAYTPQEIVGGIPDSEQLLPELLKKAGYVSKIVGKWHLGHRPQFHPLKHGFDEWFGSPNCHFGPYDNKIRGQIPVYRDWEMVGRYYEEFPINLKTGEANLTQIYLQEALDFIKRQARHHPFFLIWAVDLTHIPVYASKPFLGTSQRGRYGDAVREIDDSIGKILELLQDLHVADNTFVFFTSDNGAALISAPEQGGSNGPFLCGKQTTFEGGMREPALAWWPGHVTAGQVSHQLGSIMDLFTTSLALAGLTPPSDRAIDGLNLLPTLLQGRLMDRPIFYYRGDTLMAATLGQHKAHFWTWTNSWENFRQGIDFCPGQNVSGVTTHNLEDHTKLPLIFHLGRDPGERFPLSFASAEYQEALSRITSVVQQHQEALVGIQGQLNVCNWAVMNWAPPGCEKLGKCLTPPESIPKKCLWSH

[3] = biological target: T3, GALNS-315 (E8-N14 + I10-N14) (Homo sapiens)
T3 sequence: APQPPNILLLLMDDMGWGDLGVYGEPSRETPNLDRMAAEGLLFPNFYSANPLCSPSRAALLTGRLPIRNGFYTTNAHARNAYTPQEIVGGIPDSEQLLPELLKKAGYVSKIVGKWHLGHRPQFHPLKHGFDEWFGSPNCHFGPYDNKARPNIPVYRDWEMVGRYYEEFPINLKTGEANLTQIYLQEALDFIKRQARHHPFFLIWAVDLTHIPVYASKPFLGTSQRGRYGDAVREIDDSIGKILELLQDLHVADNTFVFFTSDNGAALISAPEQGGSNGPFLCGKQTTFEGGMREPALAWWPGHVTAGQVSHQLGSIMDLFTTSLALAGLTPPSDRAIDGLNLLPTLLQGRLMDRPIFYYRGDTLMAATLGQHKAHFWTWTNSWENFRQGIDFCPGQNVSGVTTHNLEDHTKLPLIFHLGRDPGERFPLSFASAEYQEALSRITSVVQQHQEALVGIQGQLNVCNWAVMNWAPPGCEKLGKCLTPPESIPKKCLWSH

[4] = biological target: T4, GALNS-201 (C4-N6 + I10-N14) (Homo sapiens)
T4 sequence: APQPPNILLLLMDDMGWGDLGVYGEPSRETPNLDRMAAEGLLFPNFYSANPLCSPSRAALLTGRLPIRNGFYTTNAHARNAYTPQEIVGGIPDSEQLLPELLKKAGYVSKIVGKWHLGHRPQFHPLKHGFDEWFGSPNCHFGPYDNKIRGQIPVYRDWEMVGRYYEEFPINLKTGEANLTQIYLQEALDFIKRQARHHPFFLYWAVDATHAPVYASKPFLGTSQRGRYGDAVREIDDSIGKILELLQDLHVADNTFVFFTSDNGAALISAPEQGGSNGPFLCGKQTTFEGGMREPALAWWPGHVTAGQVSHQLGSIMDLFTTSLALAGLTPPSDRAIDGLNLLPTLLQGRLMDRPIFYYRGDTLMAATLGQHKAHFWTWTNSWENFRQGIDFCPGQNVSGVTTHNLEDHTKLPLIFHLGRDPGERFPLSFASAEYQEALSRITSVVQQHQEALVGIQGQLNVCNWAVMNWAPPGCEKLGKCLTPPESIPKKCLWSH

[5] = biological target: T5, Wild type N-acetylgalactosamine-6-sulfate sulfatase (GALNS) (Homo sapiens)
T5 sequence: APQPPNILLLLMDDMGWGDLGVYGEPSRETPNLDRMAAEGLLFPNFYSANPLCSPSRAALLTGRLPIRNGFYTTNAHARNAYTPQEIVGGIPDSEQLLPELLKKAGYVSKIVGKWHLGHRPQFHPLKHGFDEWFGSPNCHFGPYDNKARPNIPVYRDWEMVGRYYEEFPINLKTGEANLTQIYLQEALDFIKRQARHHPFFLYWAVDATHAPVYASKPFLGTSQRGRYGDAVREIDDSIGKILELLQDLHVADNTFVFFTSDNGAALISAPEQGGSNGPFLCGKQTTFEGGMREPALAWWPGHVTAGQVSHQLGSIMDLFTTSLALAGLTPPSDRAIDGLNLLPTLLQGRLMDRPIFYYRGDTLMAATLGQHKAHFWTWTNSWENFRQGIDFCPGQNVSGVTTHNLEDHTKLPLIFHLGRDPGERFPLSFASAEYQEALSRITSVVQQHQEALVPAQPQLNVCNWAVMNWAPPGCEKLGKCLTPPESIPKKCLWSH

[6] = biological target: T6, GALNS-242 (C4-N7 + E8-N11) (Homo sapiens)
T6 sequence: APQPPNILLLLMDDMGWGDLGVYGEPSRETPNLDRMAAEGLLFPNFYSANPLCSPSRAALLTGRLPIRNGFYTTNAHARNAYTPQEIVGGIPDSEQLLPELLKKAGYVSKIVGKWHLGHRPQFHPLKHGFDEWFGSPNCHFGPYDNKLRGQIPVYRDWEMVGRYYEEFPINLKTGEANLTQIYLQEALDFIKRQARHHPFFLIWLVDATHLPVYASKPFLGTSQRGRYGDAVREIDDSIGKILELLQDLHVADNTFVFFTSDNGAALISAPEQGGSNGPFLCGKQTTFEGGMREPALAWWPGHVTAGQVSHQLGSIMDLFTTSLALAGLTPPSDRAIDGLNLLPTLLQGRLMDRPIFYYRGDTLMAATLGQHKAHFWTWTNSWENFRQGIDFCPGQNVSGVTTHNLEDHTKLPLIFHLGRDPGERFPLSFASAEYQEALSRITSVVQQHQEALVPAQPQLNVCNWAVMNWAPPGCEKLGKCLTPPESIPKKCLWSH

[7] = biological target: T7, I10-N14 modified GALNS (Homo sapiens)
T7 sequence: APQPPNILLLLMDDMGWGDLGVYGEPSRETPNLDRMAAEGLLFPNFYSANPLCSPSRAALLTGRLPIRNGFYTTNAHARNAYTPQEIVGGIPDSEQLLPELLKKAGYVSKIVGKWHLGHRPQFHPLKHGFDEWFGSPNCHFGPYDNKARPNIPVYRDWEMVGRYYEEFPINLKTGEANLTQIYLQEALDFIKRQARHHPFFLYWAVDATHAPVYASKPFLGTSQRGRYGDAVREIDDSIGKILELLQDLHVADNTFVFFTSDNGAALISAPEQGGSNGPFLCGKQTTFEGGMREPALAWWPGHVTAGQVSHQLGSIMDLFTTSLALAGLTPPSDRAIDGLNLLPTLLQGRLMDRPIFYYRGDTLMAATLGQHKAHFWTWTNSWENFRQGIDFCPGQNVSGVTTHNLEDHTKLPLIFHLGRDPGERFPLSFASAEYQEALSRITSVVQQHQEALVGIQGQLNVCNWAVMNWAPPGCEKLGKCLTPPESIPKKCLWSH

[8] = biological target: T8, C4-N6 modified GALNS (Homo sapiens)
T8 sequence: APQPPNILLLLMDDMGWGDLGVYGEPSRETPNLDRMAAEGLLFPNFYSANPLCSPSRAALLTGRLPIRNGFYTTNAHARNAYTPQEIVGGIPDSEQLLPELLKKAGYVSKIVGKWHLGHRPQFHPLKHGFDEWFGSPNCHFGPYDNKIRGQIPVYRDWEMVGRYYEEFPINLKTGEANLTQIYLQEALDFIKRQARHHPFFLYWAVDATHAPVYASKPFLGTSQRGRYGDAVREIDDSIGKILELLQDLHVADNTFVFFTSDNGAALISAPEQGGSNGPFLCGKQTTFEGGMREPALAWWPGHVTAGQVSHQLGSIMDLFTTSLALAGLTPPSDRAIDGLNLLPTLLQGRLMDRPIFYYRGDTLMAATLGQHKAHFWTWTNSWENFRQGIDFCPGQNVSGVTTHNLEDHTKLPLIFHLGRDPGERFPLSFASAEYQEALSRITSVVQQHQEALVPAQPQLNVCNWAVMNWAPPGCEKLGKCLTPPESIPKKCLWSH

B1: Sulfatase-modifying factor 1 (SUMF1) (enzyme)
chain: SQEAGTGAGAGSLAGSCGCGTPQRPGAHGSSAAAHRYSREANAPGPVPGERQLAHSKMVPIPAGVFTMGTDDPQIKQDGEAPARRVTIDAFYMDAYEVSNTEFEKFVNSTGYLTEAEKFGDSFVFEGMLSEQVKTNIQQAVAAAPWWLPVKGANWRHPEGPDSTILHRPDHPVLHVSWNDAVAYCTWAGKRLPTEAEWEYSCRGGLHNRLFPWGNKLQPKGQHYANIWQGEFPVTNTGEDGFQGTAPVDAFPPNGYGLYNIVGNAWEWTSDWWTVHHSVEETLNPKGPPSGKDRVKKGGSYMCHRSYCYRYRCAARSQNTPDSSASNLGFRCAADRLPTMD
With B1 as the binder, how does the GALNS enzyme activity in the pellet of COS-7 cells co-transfected with SUMF1, percentage of GALNS without SUMF1 (percent of GALNS (without SUMF1)) [1] read?
Its GALNS enzyme activity in the pellet of COS-7 cells co-transfected with SUMF1, percentage of GALNS without SUMF1 (percent of GALNS (without SUMF1)) is 567.

And the GALNS enzyme activity in the pellet of COS-7 cells co-transfected with SUMF1, percentage of GALNS without SUMF1 (percent of GALNS (without SUMF1)) [2]?
Its GALNS enzyme activity in the pellet of COS-7 cells co-transfected with SUMF1, percentage of GALNS without SUMF1 (percent of GALNS (without SUMF1)) is 628.

And the GALNS enzyme activity in the pellet of COS-7 cells co-transfected with SUMF1, percentage of GALNS without SUMF1 (percent of GALNS (without SUMF1)) [3]?
Its GALNS enzyme activity in the pellet of COS-7 cells co-transfected with SUMF1, percentage of GALNS without SUMF1 (percent of GALNS (without SUMF1)) is 563.

And the GALNS enzyme activity in the pellet of COS-7 cells co-transfected with SUMF1, percentage of GALNS without SUMF1 (percent of GALNS (without SUMF1)) [4]?
Its GALNS enzyme activity in the pellet of COS-7 cells co-transfected with SUMF1, percentage of GALNS without SUMF1 (percent of GALNS (without SUMF1)) is 545.

And the GALNS enzyme activity in the pellet of COS-7 cells co-transfected with SUMF1, percentage of GALNS without SUMF1 (percent of GALNS (without SUMF1)) [5]?
Its GALNS enzyme activity in the pellet of COS-7 cells co-transfected with SUMF1, percentage of GALNS without SUMF1 (percent of GALNS (without SUMF1)) is 1930.

What about the GALNS enzyme activity in the pellet of COS-7 cells co-transfected with SUMF1, percentage of GALNS without SUMF1 (percent of GALNS (without SUMF1)) [6] of the same binder?
Its GALNS enzyme activity in the pellet of COS-7 cells co-transfected with SUMF1, percentage of GALNS without SUMF1 (percent of GALNS (without SUMF1)) is 434.

What about the GALNS enzyme activity in the pellet of COS-7 cells co-transfected with SUMF1, percentage of GALNS without SUMF1 (percent of GALNS (without SUMF1)) [7] of the same binder?
Its GALNS enzyme activity in the pellet of COS-7 cells co-transfected with SUMF1, percentage of GALNS without SUMF1 (percent of GALNS (without SUMF1)) is 568.

And the GALNS enzyme activity in the pellet of COS-7 cells co-transfected with SUMF1, percentage of GALNS without SUMF1 (percent of GALNS (without SUMF1)) [8]?
Its GALNS enzyme activity in the pellet of COS-7 cells co-transfected with SUMF1, percentage of GALNS without SUMF1 (percent of GALNS (without SUMF1)) is 443.
